This passage reports Km, kcat and kcat/Km results from patent publication US9567576B2, “Strain expressing FRSA and method for producing ethanol using same” (SOGANG UNIVERSITY RESEARCH FOUNDATION, priority 2012, dated 2017).

One data set concerns CC(=O)C(=O)O. Kind of data set: FrsA-catalysed pyruvate decarboxylation, ADH/NADH coupled acetaldehyde assay. Format: biochemical, Vibrio vulnificus. The settings on record: other: wild-type FrsA, pH 7.0, 37° C., 1 nM FrsA. How it is done: FrsA enzymatic analysis was performed in 50 mM sodium phosphate solution (pH 7.0) containing 1 mM DTT and various concentrations of pyruvate. To measure the amount of acetaldehyde produced from pyruvate, 2 mM NADH and 3.7 U of […] was added to the FrsA reaction mixture (8). Cell lysates from wild-type E. coli and frsA mutants (9) were used in the range of 0.005 to 1 mg in amount. The acetaldehyde reaction was initiated by adding FrsA (1 nM) and incubated at 37° C. for 5 min and stopped by adding 50 mM potassium hydrogen phthalate buffer (pH3.0). The residual NADH in the reaction mixture was determined by measuring absorption at 340 nm. For CO2 measurement, FrsA enzyme reaction was performed in 50 mM Tris-HCl buffer (pH 7.0). The amount of carbon dioxide dissolved in the reaction solution was quantified by spectrophotometry after the reaction solution was treated with 10 mM calcium hydroxide (10). Concentrations of the pyruvate and acetaldehyde in the cell lysates and reaction mixtures were determined using Pyruvate Assay Lit (BioVision, USA) and Acetaldehyde UV-method kit (Roche, USA), respectively according to the manufacturer's instruction. To increase the sensitivity of the Acetaldehyde UV-method kit, the reaction mixture was additionally treated with dye (50 ml of 1.0% Tween 20 solution containing 40 mg iodonitrotetrazolium chloride and 10 mg phenazine methosulfate) followed by absorption measurement at 490 nm (11).
Values of Km and Kcat were calculated as follows. The concentration of reaction products were calculated in the mM unit from the absorption values which were obtained for a total of 1 min for each substrate concentration (S). Then initial reaction rate (Vo) for each concentration of the substrate was determined (here the unit is mM(product)/sec/mg(enzyme)). […] Keat value expressed in the unit of sec^−1 was calculated by changing the unit weight of the enzyme to the concentration in mM in the calculated Vmax (mM(product)/sec/mg(enzyme)).

Data set [1] deals with Vibrio vulnificus FrsA, wild type, SEQ ID NO: 2, + dephospho-IIA^Glc (Vibrio vulnificus, UniProt Q8DF91). Kind of data set: FrsA pyruvate decarboxylation in the presence of dephospho-IIA^Glc. The class given is biochemical. From the text:
(§1) Genomic DNA from V. vulnificus(3) was used as template and as primers Crrexp-F (5′-[…]-3′(SEQ ID NO: 13); BamHI restriction site is underlined) and Crrexp-R (5′-[…]-′3(SEQ ID NO: 14); PstI restriction site is underlined) are used to amplify crr gene of 522-bp in size encoding full length IIA^Glc. The amplified products were then digested with BamHI and PstI and cloned into a vector pQE30 to obtain pQE-crr. Phosphorylated and non-phosphorylated recombinant IIA^Glc proteins were overexpressed in E. coli JM109 in a medium comprising 1.0 mM phophoenolpyruvate or 1.0% glucose, respectively. […]
(§2) FrsA enzymatic analysis was performed in 50 mM sodium phosphate solution (pH 7.0) containing 1 mM DTT and various concentrations of pyruvate. […] The residual NADH in the reaction mixture was determined by measuring absorption at 340 nm. […] The amount of carbon dioxide dissolved in the reaction solution was quantified by spectrophotometry after the reaction solution was treated with 10 mM calcium hydroxide (10). Concentrations of the pyruvate and acetaldehyde in the cell lysates and reaction mixtures were determined using Pyruvate Assay Lit (BioVision, USA) and Acetaldehyde UV-method kit (Roche, USA), respectively according to the manufacturer's instruction. […]
(§3) Values of Km and Kcat were calculated as follows. […]

Data set [2] deals with Vibrio vulnificus FrsA, wild type, SEQ ID NO: 2, + phospho-IIA^Glc (Vibrio vulnificus, UniProt Q8DF91). Kind of data set: FrsA pyruvate decarboxylation in the presence of phospho-IIA^Glc. Format: biochemical.
Excerpt: as §1, §2, §3

Vibrio vulnificus FrsA, wild type, SEQ ID NO: 2, + dephospho-IIA^Glc, sequence (A0A3Q0L1G8 entry or part of it): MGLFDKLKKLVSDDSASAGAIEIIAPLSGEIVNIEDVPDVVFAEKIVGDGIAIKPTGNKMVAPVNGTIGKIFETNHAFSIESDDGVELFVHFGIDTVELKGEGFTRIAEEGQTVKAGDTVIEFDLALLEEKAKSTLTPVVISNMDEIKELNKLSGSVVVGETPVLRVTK
Vibrio vulnificus FrsA, wild type, SEQ ID NO: 2, + dephospho-IIA^Glc, sequence (Q8DF91 whole entry): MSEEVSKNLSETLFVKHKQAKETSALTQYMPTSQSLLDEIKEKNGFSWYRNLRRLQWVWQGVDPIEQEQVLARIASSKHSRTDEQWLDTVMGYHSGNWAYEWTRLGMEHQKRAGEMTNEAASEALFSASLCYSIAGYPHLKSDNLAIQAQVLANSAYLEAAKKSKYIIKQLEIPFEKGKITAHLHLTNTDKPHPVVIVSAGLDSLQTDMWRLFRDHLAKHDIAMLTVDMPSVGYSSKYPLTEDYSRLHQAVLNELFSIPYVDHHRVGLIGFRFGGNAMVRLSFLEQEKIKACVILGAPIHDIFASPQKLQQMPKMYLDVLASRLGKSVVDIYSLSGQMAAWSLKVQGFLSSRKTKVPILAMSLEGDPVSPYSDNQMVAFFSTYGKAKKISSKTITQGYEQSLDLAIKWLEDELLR
Vibrio vulnificus FrsA, wild type, SEQ ID NO: 2, + phospho-IIA^Glc, sequence (Q8DF91 whole entry): as above
Vibrio vulnificus FrsA, wild type, SEQ ID NO: 2, + phospho-IIA^Glc, sequence (A0A3Q0L1G8 entry or part of it, further chain): as the sequence (A0A3Q0L1G8 entry or part of it) above

For “Vibrio vulnificus FrsA, wild type, SEQ ID NO: 2 (Vibrio vulnificus CMCP6)”, in the data set with CC(=O)C(=O)O, the Km amounted to 390 ± 20 µM, the kcat amounted to 1372 ± 11 s⁻¹ and the kcat/Km is 3.52e+06 ± 183000 M⁻¹ s⁻¹.
Turning to `CC(=O)C(=O)O` [pyruvate], the Km in data set [1] was 390 ± 30 µM; in data set [2] it was 390 ± 10 µM.
